First the molecules themselves.
B1: V(D)J recombination-activating protein 2, residues 415 to 491; numbered along this chain, P55895 (parent)
chain: YWITCCPTCDVDINTWVPFYSTELNKPAMIYCSHGDGHWVHAQCMDLAERTLIHLSAGSNKYYCNEHVEIARALHTP

± gives the uncertainty stated by the source.

The series covers variants of B1. Kind of series: abundance fitness (aPCA) (normalised: wild type 0, dead -1); higher = more abundant; growth selection in yeast, the domain comes from the species named. Particulars: Homo sapiens.
As to YWITCCPTCDVDINTWVEFYSTELNKPAMIYCSHGDGHWVHAQCMDLAERTLIHLSAGSNKYYCNEHVEIARALHTP, the abundance fitness was -0.28 ± 0.34.
As to YWITCCPTCDVDINTWVIFYSTELNKPAMIYCSHGDGHWVHAQCMDLAERTLIHLSAGSNKYYCNEHVEIARALHTP, the abundance fitness is -0.892 ± 0.29.
Then YWITCCPTCDVDINTWVHFYSTELNKPAMIYCSHGDGHWVHAQCMDLAERTLIHLSAGSNKYYCNEHVEIARALHTP, with -0.175 ± 0.3; and YWITCCPTCDVDINTWVRFYSTELNKPAMIYCSHGDGHWVHAQCMDLAERTLIHLSAGSNKYYCNEHVEIARALHTP, with -0.381 ± 0.081.
For YWITCCPTCDVDINTWVMFYSTELNKPAMIYCSHGDGHWVHAQCMDLAERTLIHLSAGSNKYYCNEHVEIARALHTP, the abundance fitness was -0.579 ± 0.24.
In the case of YWITCCPTCDVDINTWVQFYSTELNKPAMIYCSHGDGHWVHAQCMDLAERTLIHLSAGSNKYYCNEHVEIARALHTP, the abundance fitness was -0.425 ± 0.14.
Next, YWITCCPTCDVDINTWVLFYSTELNKPAMIYCSHGDGHWVHAQCMDLAERTLIHLSAGSNKYYCNEHVEIARALHTP: -0.038 ± 0.25.
On to YWITCCPTCDVDINTWVGFYSTELNKPAMIYCSHGDGHWVHAQCMDLAERTLIHLSAGSNKYYCNEHVEIARALHTP, for which the abundance fitness is -0.36 ± 0.2.
As to YWITCCPTCDVDINTWVNFYSTELNKPAMIYCSHGDGHWVHAQCMDLAERTLIHLSAGSNKYYCNEHVEIARALHTP, the abundance fitness was -0.453 ± 0.27.
For the variant YWITCCPTCDVDINTWVSFYSTELNKPAMIYCSHGDGHWVHAQCMDLAERTLIHLSAGSNKYYCNEHVEIARALHTP, the abundance fitness is -0.344 ± 0.17.
As for YWITCCPTCDVDINTWVAFYSTELNKPAMIYCSHGDGHWVHAQCMDLAERTLIHLSAGSNKYYCNEHVEIARALHTP, the abundance fitness was -0.028 ± 0.25.
Then YWITCCPTCDVDINTQVPFYSTELNKPAMIYCSHGDGHWVHAQCMDLAERTLIHLSAGSNKYYCNEHVEIARALHTP, with -0.916 ± 0.43; and YWITCCPTCDVDINTIVPFYSTELNKPAMIYCSHGDGHWVHAQCMDLAERTLIHLSAGSNKYYCNEHVEIARALHTP, with -0.12 ± 0.26; and YWITCCPTCDVDINTTVPFYSTELNKPAMIYCSHGDGHWVHAQCMDLAERTLIHLSAGSNKYYCNEHVEIARALHTP, with -0.144 ± 0.38.
Regarding YWITCCPTCDVDINTPVPFYSTELNKPAMIYCSHGDGHWVHAQCMDLAERTLIHLSAGSNKYYCNEHVEIARALHTP, the abundance fitness is -0.471 ± 0.41.
Turning to YWITCCPTCDVDINTLVPFYSTELNKPAMIYCSHGDGHWVHAQCMDLAERTLIHLSAGSNKYYCNEHVEIARALHTP, the abundance fitness was -0.346 ± 0.2.
With YWITCCPTCDVDINTRVPFYSTELNKPAMIYCSHGDGHWVHAQCMDLAERTLIHLSAGSNKYYCNEHVEIARALHTP, the abundance fitness was -0.35 ± 0.16.
Regarding YWITCCPTCDVDINTWVPRYSTELNKPAMIYCSHGDGHWVHAQCMDLAERTLIHLSAGSNKYYCNEHVEIARALHTP, the abundance fitness was -0.145 ± 0.12.
In the case of YWITCCPTCDVDINTWVPDYSTELNKPAMIYCSHGDGHWVHAQCMDLAERTLIHLSAGSNKYYCNEHVEIARALHTP, the abundance fitness is 0.099 ± 0.32.
Consider YWITCCPTCDVDINTWVPMYSTELNKPAMIYCSHGDGHWVHAQCMDLAERTLIHLSAGSNKYYCNEHVEIARALHTP, for which the abundance fitness was -0.029 ± 0.16.
Regarding YWITCCPTCDVDINTWVPGYSTELNKPAMIYCSHGDGHWVHAQCMDLAERTLIHLSAGSNKYYCNEHVEIARALHTP, the abundance fitness was -0.142 ± 0.19.
As to YWITCCPTCDVDINTWVPYYSTELNKPAMIYCSHGDGHWVHAQCMDLAERTLIHLSAGSNKYYCNEHVEIARALHTP, the abundance fitness was determined as 0.08 ± 0.42.
On to YWITCCPTCDVDINTWVPCYSTELNKPAMIYCSHGDGHWVHAQCMDLAERTLIHLSAGSNKYYCNEHVEIARALHTP, for which the abundance fitness is -0.186 ± 0.2.
With YWITCCPTCDVDINTWVPSYSTELNKPAMIYCSHGDGHWVHAQCMDLAERTLIHLSAGSNKYYCNEHVEIARALHTP, the abundance fitness is -0.154 ± 0.29.
For the variant YWITCCPTCDVDINTWVPKYSTELNKPAMIYCSHGDGHWVHAQCMDLAERTLIHLSAGSNKYYCNEHVEIARALHTP, the abundance fitness is -0.116 ± 0.27.
For YWITCCPTCDVDINTWVPEYSTELNKPAMIYCSHGDGHWVHAQCMDLAERTLIHLSAGSNKYYCNEHVEIARALHTP, the abundance fitness is -0.179 ± 0.16.
For YWITCCPTCDVDINTWVPAYSTELNKPAMIYCSHGDGHWVHAQCMDLAERTLIHLSAGSNKYYCNEHVEIARALHTP, the abundance fitness was -0.305 ± 0.13.
YWITCCPTCDVDINTWVPNYSTELNKPAMIYCSHGDGHWVHAQCMDLAERTLIHLSAGSNKYYCNEHVEIARALHTP: the abundance fitness was determined as 0.191 ± 0.46.
YWITCCPTCDVDINTWVPWYSTELNKPAMIYCSHGDGHWVHAQCMDLAERTLIHLSAGSNKYYCNEHVEIARALHTP: the abundance fitness was 0.043 ± 0.19.
For the variant YWITCCPTCDVDINTWVPPYSTELNKPAMIYCSHGDGHWVHAQCMDLAERTLIHLSAGSNKYYCNEHVEIARALHTP, the abundance fitness is -0.509 ± 0.15.
Take YWITCCPTCDVDINTWVPFYQTELNKPAMIYCSHGDGHWVHAQCMDLAERTLIHLSAGSNKYYCNEHVEIARALHTP: the abundance fitness is -0.325 ± 0.37.
YWITCCPTCDVDINTWVPFYRTELNKPAMIYCSHGDGHWVHAQCMDLAERTLIHLSAGSNKYYCNEHVEIARALHTP: the abundance fitness is -0.111 ± 0.12.
Turning to YWITCCPTCDVDINTWVPFYATELNKPAMIYCSHGDGHWVHAQCMDLAERTLIHLSAGSNKYYCNEHVEIARALHTP, the abundance fitness is -0.187 ± 0.13.
In the case of YWITCCPTCDVDINTWVPFYHTELNKPAMIYCSHGDGHWVHAQCMDLAERTLIHLSAGSNKYYCNEHVEIARALHTP, the abundance fitness was 0.086 ± 0.35.
Then YWITCCPTCDVDINTWVPFYGTELNKPAMIYCSHGDGHWVHAQCMDLAERTLIHLSAGSNKYYCNEHVEIARALHTP, with -0.108 ± 0.091.

These data come from the Human Domainome abundance scans (Beltran et al. 2025).
